Columns and labels:
Assay in all cases: holdup assay
Design in all cases: key: below the threshold = too weak to quantify, mostly under pKd 3.1 to 4
[1] = molecular target: NHERF4_4, Q86UT5
[2] = molecular target: T1, GRIP1_5, Q9Y3R0
T1 sequence (Q9Y3R0 568-668, limits assumed, looked up): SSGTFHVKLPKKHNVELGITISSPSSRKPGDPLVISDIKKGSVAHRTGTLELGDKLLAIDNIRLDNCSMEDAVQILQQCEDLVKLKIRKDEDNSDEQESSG

[3] = molecular target: T2, DLG3_2, Q92796
T2 sequence (Q92796 221-321, limits assumed, looked up): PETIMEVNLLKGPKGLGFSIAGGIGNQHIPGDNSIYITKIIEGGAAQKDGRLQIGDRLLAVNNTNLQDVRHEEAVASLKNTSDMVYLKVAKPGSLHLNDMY

[4] = molecular target: GORASP1, Q9BQQ3
Sequence of GORASP1, Q9BQQ3 (Q9BQQ3 1-208): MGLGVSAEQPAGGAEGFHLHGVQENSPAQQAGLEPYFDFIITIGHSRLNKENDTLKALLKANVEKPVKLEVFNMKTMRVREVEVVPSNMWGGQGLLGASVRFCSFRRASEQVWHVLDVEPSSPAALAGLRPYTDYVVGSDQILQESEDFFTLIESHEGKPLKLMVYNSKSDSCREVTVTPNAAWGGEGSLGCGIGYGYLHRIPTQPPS

[5] = molecular target: MAGI2_2, Q86UL8
Sequence of MAGI2_2, Q86UL8 (Q86UL8 410-522): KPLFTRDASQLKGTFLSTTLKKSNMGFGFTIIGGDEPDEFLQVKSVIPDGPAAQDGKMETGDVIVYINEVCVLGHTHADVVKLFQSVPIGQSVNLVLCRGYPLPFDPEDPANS

[6] = molecular target: T3, TJP3_3, O95049
T3 sequence (O95049 375-456, limits assumed, looked up): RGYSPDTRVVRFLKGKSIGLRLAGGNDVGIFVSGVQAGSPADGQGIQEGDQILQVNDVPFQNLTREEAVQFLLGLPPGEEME

[7] = molecular target: Inadl_5, Q8NI35
Sequence of Inadl_5, Q8NI35 (Q8NI35 673-780): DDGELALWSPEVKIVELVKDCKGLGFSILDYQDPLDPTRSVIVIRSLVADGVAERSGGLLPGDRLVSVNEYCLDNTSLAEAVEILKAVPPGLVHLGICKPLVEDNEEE

[8] = molecular target: HTRA1, Q92743
Sequence of HTRA1, Q92743 (Q92743 360-477): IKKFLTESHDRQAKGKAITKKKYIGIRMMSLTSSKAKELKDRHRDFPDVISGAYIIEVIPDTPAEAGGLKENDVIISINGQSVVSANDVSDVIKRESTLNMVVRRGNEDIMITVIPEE

[9] = molecular target: T4, SIPA1L2, Q9P2F8
T4 sequence (Q9P2F8 945-1036, limits assumed, looked up): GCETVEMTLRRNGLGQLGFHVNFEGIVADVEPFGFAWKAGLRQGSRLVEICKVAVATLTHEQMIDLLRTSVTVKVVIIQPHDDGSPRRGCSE

[10] = molecular target: HTRA2, O43464
Sequence of HTRA2, O43464 (O43464 355-458): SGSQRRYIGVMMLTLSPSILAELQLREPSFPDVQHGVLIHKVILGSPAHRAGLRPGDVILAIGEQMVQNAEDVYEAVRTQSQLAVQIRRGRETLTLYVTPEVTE

[11] = molecular target: FRMPD2_3, Q68DX3
Sequence of FRMPD2_3, Q68DX3 (Q68DX3 1073-1166): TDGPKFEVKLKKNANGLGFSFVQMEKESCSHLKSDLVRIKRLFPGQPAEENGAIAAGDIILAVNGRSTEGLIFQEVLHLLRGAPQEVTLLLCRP

[12] = molecular target: T5, GRIP1_4, Q9Y3R0
T5 sequence (Q9Y3R0 467-571, limits assumed, looked up): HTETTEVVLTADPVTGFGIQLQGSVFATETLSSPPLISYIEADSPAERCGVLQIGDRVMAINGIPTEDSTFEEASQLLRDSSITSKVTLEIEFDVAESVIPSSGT

[13] = molecular target: TJP1_3, Q07157
Sequence of TJP1_3, Q07157 (Q07157 416-512): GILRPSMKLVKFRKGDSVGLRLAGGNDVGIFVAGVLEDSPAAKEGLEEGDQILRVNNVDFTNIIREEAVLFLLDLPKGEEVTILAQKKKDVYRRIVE

[14] = molecular target: FRMPD4, Q14CM0
Sequence of FRMPD4, Q14CM0 (Q14CM0 67-160): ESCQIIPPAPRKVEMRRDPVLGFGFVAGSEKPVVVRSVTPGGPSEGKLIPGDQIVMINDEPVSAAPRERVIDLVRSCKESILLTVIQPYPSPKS

[15] = molecular target: IL16_3, Q14005
Sequence of IL16_3, Q14005 (Q14005 1107-1207): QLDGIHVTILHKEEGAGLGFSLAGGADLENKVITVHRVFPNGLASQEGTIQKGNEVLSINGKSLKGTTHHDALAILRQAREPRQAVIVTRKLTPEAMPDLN

[16] = molecular target: Inadl_3, Q8NI35
Sequence of Inadl_3, Q8NI35 (Q8NI35 359-469): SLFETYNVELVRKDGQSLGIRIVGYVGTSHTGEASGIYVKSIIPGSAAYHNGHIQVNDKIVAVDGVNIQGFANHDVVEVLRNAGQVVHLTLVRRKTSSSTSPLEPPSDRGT

[17] = molecular target: T6, HTRA3, P83110
T6 sequence (P83110 354-453, limits assumed, looked up): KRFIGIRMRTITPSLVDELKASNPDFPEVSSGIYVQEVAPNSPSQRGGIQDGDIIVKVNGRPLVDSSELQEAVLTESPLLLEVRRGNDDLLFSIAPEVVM

[18] = molecular target: T7, APBA3_1, O96018
T7 sequence (O96018 389-490, limits assumed, looked up): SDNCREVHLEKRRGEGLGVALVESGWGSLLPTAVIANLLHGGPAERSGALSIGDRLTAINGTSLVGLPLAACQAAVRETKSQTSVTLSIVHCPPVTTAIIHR

[19] = molecular target: T8, FRMPD1, Q5SYB0
T8 sequence (Q5SYB0 52-145, limits assumed, looked up): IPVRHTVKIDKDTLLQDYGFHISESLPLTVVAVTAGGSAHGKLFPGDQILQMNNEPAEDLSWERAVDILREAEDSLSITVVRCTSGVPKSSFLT

[20] = molecular target: LNX1_2, Q8TBB1
Sequence of LNX1_2, Q8TBB1 (Q8TBB1 371-470): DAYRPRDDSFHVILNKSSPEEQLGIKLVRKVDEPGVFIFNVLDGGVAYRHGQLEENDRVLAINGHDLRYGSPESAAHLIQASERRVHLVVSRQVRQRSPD

[21] = molecular target: MAGI2_6, Q86UL8
Sequence of MAGI2_6, Q86UL8 (Q86UL8 1141-1229): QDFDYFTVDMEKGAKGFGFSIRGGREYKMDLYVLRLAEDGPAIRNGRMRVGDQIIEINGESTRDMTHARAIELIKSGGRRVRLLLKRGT

[22] = molecular target: LIMK2, P53671
Sequence of LIMK2, P53671 (P53671 143-248): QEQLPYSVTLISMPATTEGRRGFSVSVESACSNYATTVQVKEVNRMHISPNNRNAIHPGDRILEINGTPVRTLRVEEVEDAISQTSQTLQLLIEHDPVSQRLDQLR

[23] = molecular target: GRIP2_7, Q9C0E4
Sequence of GRIP2_7, Q9C0E4 (Q9C0E4 934-1023): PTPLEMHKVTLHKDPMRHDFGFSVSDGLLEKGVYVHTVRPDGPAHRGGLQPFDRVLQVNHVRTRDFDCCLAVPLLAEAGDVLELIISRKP

[24] = molecular target: T9, PDZD7_3, Q9H5P4
T9 sequence (Q9H5P4 857-944, limits assumed, looked up): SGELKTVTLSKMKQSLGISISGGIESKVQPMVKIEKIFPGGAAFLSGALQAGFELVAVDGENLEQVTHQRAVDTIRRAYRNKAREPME

[25] = molecular target: T10, PDZD2_2, O15018
T10 sequence (O15018 329-429, limits assumed, looked up): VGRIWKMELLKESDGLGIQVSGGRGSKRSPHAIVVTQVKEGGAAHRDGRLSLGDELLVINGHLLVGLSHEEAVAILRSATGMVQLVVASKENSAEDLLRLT

[26] = molecular target: T11, SNTG2, Q9NY99
T11 sequence (Q9NY99 68-166, limits assumed, looked up): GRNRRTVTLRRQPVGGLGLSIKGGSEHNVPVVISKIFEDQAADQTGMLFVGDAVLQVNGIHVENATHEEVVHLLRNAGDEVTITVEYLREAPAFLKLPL

[27] = plain residues with an end cap or a label only (N-terminal biotin on a linker: ttds)
[28] = plain residues with an end cap or a label only (N-terminal biotin on a linker: ado-ado)

Sequence of NHERF4_4, Q86UT5 (Q86UT5 464-550): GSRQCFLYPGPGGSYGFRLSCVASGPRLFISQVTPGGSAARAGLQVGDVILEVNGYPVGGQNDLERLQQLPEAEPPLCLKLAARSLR

RTRQRNETQV [HPV51-E6, P26554]
pKd [1, 27]: below the threshold
pKd [2, 27]: below the threshold
pKd [3, 27]: 5.1
pKd [4, 27]: below the threshold
pKd [5, 27]: 6.66
pKd [6, 27]: below the threshold
pKd [7, 27]: 3.4
pKd [8, 27]: below the threshold
pKd [9, 27]: below the threshold
pKd [10, 27]: below the threshold
pKd [11, 27]: below the threshold
pKd [12, 27]: below the threshold
pKd [13, 27]: below the threshold
pKd [14, 27]: below the threshold
pKd [15, 27]: below the threshold
pKd [16, 27]: below the threshold
pKd [17, 27]: below the threshold
pKd [18, 27]: below the threshold
pKd [19, 27]: below the threshold
pKd [20, 27]: below the threshold
pKd [21, 27]: below the threshold
pKd [22, 27]: below the threshold
pKd [23, 27]: 3.48
pKd [24, 27]: 3.88
pKd [25, 27]: 3.58
pKd [26, 27]: 4.22

GGPKEEESPV [SLC16A1, P53985]
pKd [1, 27]: below the threshold
pKd [2, 27]: below the threshold
pKd [3, 27]: below the threshold
pKd [4, 27]: below the threshold
pKd [5, 27]: below the threshold
pKd [6, 27]: below the threshold
pKd [7, 27]: below the threshold
pKd [8, 27]: below the threshold
pKd [9, 27]: below the threshold
pKd [10, 27]: below the threshold
pKd [11, 27]: below the threshold
pKd [12, 27]: below the threshold
pKd [13, 27]: below the threshold
pKd [14, 27]: below the threshold
pKd [15, 27]: below the threshold
pKd [16, 27]: below the threshold
pKd [17, 27]: below the threshold
pKd [18, 27]: below the threshold
pKd [19, 27]: below the threshold
pKd [20, 27]: below the threshold
pKd [21, 27]: below the threshold
pKd [22, 27]: below the threshold
pKd [23, 27]: below the threshold
pKd [24, 27]: below the threshold
pKd [25, 27]: 4.75
pKd [26, 27]: below the threshold

EEPEERHTEL [CES2, O00748]
pKd [1, 28]: below the threshold
pKd [2, 28]: below the threshold
pKd [3, 28]: 4.38
pKd [4, 28]: below the threshold
pKd [5, 28]: below the threshold
pKd [6, 28]: below the threshold
pKd [7, 28]: below the threshold
pKd [8, 28]: 4.36
pKd [9, 28]: below the threshold
pKd [10, 28]: below the threshold
pKd [11, 28]: below the threshold
pKd [12, 28]: below the threshold
pKd [13, 28]: below the threshold
pKd [14, 28]: 4.04
pKd [15, 28]: below the threshold
pKd [16, 28]: below the threshold
pKd [17, 28]: below the threshold
pKd [18, 28]: below the threshold
pKd [19, 28]: below the threshold
pKd [20, 28]: below the threshold
pKd [21, 28]: 4.27
pKd [22, 28]: below the threshold
pKd [23, 28]: below the threshold
pKd [24, 28]: 4.72
pKd [25, 28]: 5.04
pKd [26, 28]: below the threshold

— PMC9482650, “Quantitative fragmentomics allow affinity mapping of interactomes” (Nature Communications, 2022)
